From US20240261333A1, “NOVEL TARGETS FOR ENHANCING ANTI-TUMOR IMMUNITY” (THE BROAD INSTITUTE, INC., priority 2021, published 2024)

T1: B3GNT2 (Homo sapiens, UniProt Q9NY97)
T1 construct: The respective ORFs of candidate genes [CD274 (NM_014143), MCL1 (NM_021960), JUNB (NM_002229), and B3GNT2 (NM_006577)] were synthesized; expressed in transfected cells; host or cells: A375 melanoma cells (lentiviral ORF overexpression)
T1 sequence (Q9NY97 1-397): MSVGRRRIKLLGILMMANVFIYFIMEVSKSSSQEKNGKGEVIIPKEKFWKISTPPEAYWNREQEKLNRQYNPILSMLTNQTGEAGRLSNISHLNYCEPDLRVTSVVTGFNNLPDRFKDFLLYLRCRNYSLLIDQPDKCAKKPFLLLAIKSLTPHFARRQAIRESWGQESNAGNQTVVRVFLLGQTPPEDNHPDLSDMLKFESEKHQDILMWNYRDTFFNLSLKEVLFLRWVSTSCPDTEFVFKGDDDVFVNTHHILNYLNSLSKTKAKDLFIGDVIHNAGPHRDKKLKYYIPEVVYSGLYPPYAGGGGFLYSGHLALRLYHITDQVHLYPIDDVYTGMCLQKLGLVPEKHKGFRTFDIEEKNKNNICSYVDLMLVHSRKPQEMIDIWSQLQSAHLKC

B1: GGCT (protein)
chain: MANSGCKDVTGPDEESFLYFAYGSNLLTERIHLRNPSAAFFCVARLQDFKLDFGNSQGKTSQTWHGGIATIFQSPGDEVWGVVWKMNKSNLNSLDEQEGVKSGMYVVIEVKVATQEGKEITCRSYLMTNYESAPPSPQYKKIICMGAKENGLPLEYQEKLKAIEPNDYTGKVSEEIEDIIKKGETQTL
B2: SAMM50 (protein)
chain: MGTVHARSLEPLPSSGPDFGGLGEEAEFVEVEPEAKQEILENKDVVVQHVHFDGLGRTKDDIIICEIGDVFKAKNLIEVMRKSHEAREKLLRLGIFRQVDVLIDTCQGDDALPNGLDVTFEVTELRRLTGSYNTMVGNNEGSMVLGLKLPNLLGRAEKVTFQFSYGTKETSYGLSFFKPRPGNFERNFSVNLYKVTGQFPWSSLRETDRGMSAEYSFPIWKTSHTVKWEGVWRELGCLSRTASFAVRKESGHSLKSSLSHAMVIDSRNSSILPRRGALLKVNQELAGYTGGDVSFIKEDFELQLNKQLIFDSVFSASFWGGMLVPIGDKPSSIADRFYLGGPTSIRGFSMHSIGPQSEGDYLGGEAYWAGGLHLYTPLPFRPGQGGFGELFRTHFFLNAGNLCNLNYGEGPKAHIRKLAECIRWSYGAGIVLRLGNIARLELNYCVPMGVQTGDRICDGVQFGAGIRFL
B3: FUBP3 (protein)
chain: AELVQGQSAPVGMKAEGFVDALHRVRQIAAKIDSIPHLNNSTPLVDPSVYGYGVQKRPLDDGVGNQLGALVHQRTVITEEFKVPDKMVGFIIGRGGEQISRIQAESGCKIQIASESSGIPERPCVLTGTPESIEQAKRLLGQIVDRCRNGPGFHNDIDSNSTIQEILIPASKVGLVIGRGGETIKQLQERTGVKMVMIQDGPLPTGADKPLRITGDAFKVQQAREMVLEIIREKDQADFRGVRGDFNSRMGGGSIEVSVPRFAVGIVIGRNGEMIKKIQNDAGVRIQFKPDDGISPERAAQVMGPPDRCQHAAHIISELILTAQERDGFGGLAAARGRGRGRGDWSVGAPGGVQEITYTVPADKCGLVIGKGGENIKSINQQSGAHVELQRNPPPNSDPNLRRFTIRGVPQQIEVARQLIDEKVGGTNLGAPGAFGQSPFSQPPAPPHQNTFPPRSSGCFPNMAAKVNGNPHSTPVSGPPAFLTQGWGSTYQAWQQPTQQVPSQQSQPQSSQPNYSKAWEDYYKKQSHAASAAPQASSPPDYTMAWAEYYRQQVAFYGQTLGQAQAHSQEQ
B4: EIF5B (protein)
chain: MGKKQKNKSEDSTKDDIDLDALAAEIEGAGAAKEQEPQKSKGKKKKEKKKQDFDEDDILKELEELSLEAQGIKADRETVAVKPTENNEEEFTSKDKKKKGQKGKKQSFDDNDSEELEDKDSKSKKTAKPKVEMYSGSDDDDDFNKLPKKAKGKAQKSNKKWDGSEEDEDNSKKIKERSRINSSGESGDESDEFLQSRKGQKKNQKNKPGPNIESGNEDDDASFKIKTVAQKKAEKKERERKKRDEEKAKLRKLKEKEELETGKKDQSKQKESQRKFEEETVKSKVTVDTGVIPASEEKAETPTAAEDDNEGDKKKKDKKKKKGEKEEKEKEKKKGPSKATVKAMQEALAKLKEEEERQKREEEERIKRLEELEAKRKEEERLEQEKRERKKQKEKERKERLKKEGKLLTKSQREARARAEATLKLLQAQGVEVPSKDSLPKKRPIYEDKKRKKIPQQLESKEVSESMELCAAVEVMEQGVPEKEETPPPVEPEEEEDTEDAGLDDWEAMASDEETEKVEGNKVHIEVKENPEEEEEEEEEEEEDEESEEEEEEEGESEGSEGDEEDEKVSDEKDSGKTLDKKPSKEMSSDSEYDSDDDRTKEERAYDKAKRRIEKRRLEHSKNVNTEKLRAPIICVLGHVDTGKTKILDKLRHTHVQDGEAGGITQQIGATNVPLEAINEQTKMIKNFDRENVRIPGMLIIDTPGHESFSNLRNRGSSLCDIAILVVDIMHGLEPQTIESINLLKSKKCPFIVALNKIDRLYDWKKSPDSDVAATLKKQKKNTKDEFEERAKAIIVEFAQQGLNAALFYENKDPRTFVSLVPTSAHTGDGMGSLIYLLVELTQTMLSKRLAHCEELRAQVMEVKALPGMGTTIDVILINGRLKEGDTIIVPGVEGPIVTQIRGLLLPPPMKELRVKNQYEKHKEVEAAQGVKILGKDLEKTLAGLPLLVAYKEDEIPVLKDELIHELKQTLNAIKLEEKGVYVQASTLGSLEALLEFLKTSEVPYAGINIGPVHKKDVMKASVMLEHDPQYAVILAFDVRIERDAQEMADSLGVRIFSAEIIYHLFDAFTKYRQDYKKQKQEEFKHIAVFPCKIKILPQYIFNSRDPIVMGVTVEAGQVKQGTPMCVPSKNFVDIGIVTSIEINHKQVDVAKKGQEVCVKIEPIPGESPKMFGRHFEATDILVSKISRQSIDALKDWFRDEMQKSDWQLIVELKKVFEII
B5: UBAP2L (protein)
chain: MMTSVGTNRARGNWEQPQNQNQTQHKQRPQATAEQIRLAQMISDHNDADFEEKVKQLIDITGKNQDECVIALHDCNGDVNRAINVLLEGNPDTHSWEMVGKKKGVSGQKDGGQTESNEEGKENRDRDRDYSRRRGGPPRRGRGASRGREFRGQENGLDGTKSGGPSGRGTERGRRGRGRGRGGSGRRGGRFSAQGMGTFNPADYAEPANTDDNYGNSSGNTWNNTGHFEPDDGTSAWRTATEEWGTEDWNEDLSETKIFTASNVSSVPLPAENVTITAGQRIDLAVLLGKTPSTMENDSSNLDPSQAPSLAQPLVFSNSKQTAISQPASGNTFSHHSMVSMLGKGFGDVGEAKGGSTTGSQFLEQFKTAQALAQLAAQHSQSGSTTTSSWDMGSTTQSPSLVQYDLKNPSDSAVHSPFTKRQAFTPSSTMMEVFLQEKSPAVATSTAAPPPPSSPLPSKSTSAPQMSPGSSDNQSSSPQPAQQKLKQQKKKASLTSKIPALAVEMPGSADISGLNLQFGALQFGSEPVLSDYESTPTTSASSSQAPSSLYTSTASESSSTISSNQSQESGYQSGPIQSTTYTSQNNAQGPLYEQRSTQTRRYPSSISSSPQKDLTQAKNGFSSVQATQLQTTQSVEGATGSAVKSDSPSTSSIPPLNETVSAASLLTTTNQHSSSLGGLSHSEEIPNTTTTQHSSTLSTQQNTLSSSTSSGRTSTSTLLHTSVESEANLHSSSSTFSTTSSTVSAPPPVVSVSSSLNSGSSLGLSLGSNSTVTASTRSSVATTSGKAPPNLPPGVPPLLPNPYIMAPGLLHAYPPQVYGYDDLQMLQTRFPLDYYSIPFPTPTTPLTGRDGSLASNPYSGDLTKFGRGDASSPAPATTLAQPQQNQTQTHHTTQQTFLNPALPPGYSYTSLPYYTGVPGLPSTFQYGPAVFPVAPTSSKQHGVNVSVNASATPFQQPSGYGSHGYNTGVSVTSSNTGVPDISGSVYSKTQQSFEKQGFHSGTPAASFNLPSALGSGGPINPATAAAYPPAPFMHILTPHQQPHSQILHHHLQQDGQTGSGQRSQTSSIPQKPQTNKSAYNSYSWGAN
B6: DDX5 (protein)
chain: MSGYSSDRDRGRDRGFGAPRFGGSRAGPLSGKKFGNPGEKLVKKKWNLDELPKFEKNFYQEHPDLARRTAQEVETYRRSKEITVRGHNCPKPVLNFYEANFPANVMDVIARQNFTEPTAIQAQGWPVALSGLDMVGVAQTGSGKTLSYLLPAIVHINHQPFLERGDGPICLVLAPTRELAQQVQQVAAEYCRACRLKSTCIYGGAPKGPQIRDLERGVEICIATPGRLIDFLECGKTNLRRTTYLVLDEADRMLDMGFEPQIRKIVDQIRPDRQTLMWSATWPKEVRQLAEDFLKDYIHINIGALELSANHNILQIVDVCHDVEKDEKLIRLMEEIMSEKENKTIVFVETKRRCDELTRKMRRDGWPAMGIHGDKSQQERDWVLNEFKHGKAPILIATDVASRGLDVEDVKFVINYDYPNSSEDYIHRIGRTARSTKTGTAYTFFTPNNIKQVSDLISVLREANQAINPKLLQLVEDRGSGRSRGRGGMKDDRRDRYSAGKRGGFNTFRDRENYDRGYSSLLKRDFGAKTQNGVYSAANYTNGSFGSNFVSAGIQTSFRTGNPTGTYQNGYDSTQQYGSNVPNMHNGMNQQAYAYPATAAAPMIGYPMPTGYSQ
B7: NUFIP2 (protein)
chain: MEEKPGQPQPQHHHSHHHPHHHPQQQQQQPHHHHHYYFYNHSHNHHHHHHHQQPHQYLQHGAEGSPKAQPKPLKHEQKHTLQQHQETPKKKTGYGELNGNAGEREISLKNLSSDEATNPISRVLNGNQQVVDTSLKQTVKANTFGKAGIKTKNFIQKNSMDKKNGKSYENKSGENQSVDKSDTIPIPNGVVTNNSGYITNGYMGKGADNDGSGSESGYTTPKKRKARRNSAKGCENLNIVQDKIMQQETSVPTLKQGLETFKPDYSEQKGNRVDGSKPIWKYETGPGGTSRGKPAVGDMLRKSSDSKPGVSSKKFDDRPKGKHASAVASKEDSWTLFKPPPVFPVDNSSAKIVPKISYASKVKENLNKTIQNSSVSPTSSSSSSSSTGETQTQSSSRLSQVPMSALKSVTSANFSNGPVLAGTDGNVYPPGGQPLLTTAANTLTPISSGTDSVLQDMSLTSAAVEQIKTSLFIYPSNMQTMLLSTAQVDLPSQTDQQNLGDIFQNQWGLSFINEPSAGPETVTGKSSEHKVMEVTFQGEYPATLVSQGAEIIPSGTEHPVFPKAYELEKRTSPQVLGSILKSGTTSESGALSLEPSHIGDLQKADTSSQGALVFLSKDYEIESQNPLASPTNTLLGSAKEQRYQRGLERNDSWGSFDLRAAIVYHTKEMESIWNLQKQDPKRIITYNEAMDSPDQ

Molecular target: T1, B3GNT2
Experiment: Co-IP of FLAG-tagged B3GNT2 followed by mass spectrometry
Format: cell-based
Parameters: C-term IgG / C-term flag: unit not given here
Conditions: Co-IP followed by mass spectrometry of B3GNT2; C-term tag, FLAG pull-down
In short: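 FLAG-tagged B3GNT2 immunoprecipitated from cell lysate (HEPES, 1% Triton X-100, 150 mM NaCl) with anti-FLAG versus […], overnight at 4° C, then captured on Protein A/G magnetic beads for 4 h. Two biological replicates per condition. Peptides fractionated and analyzed by nano-LC on an Orbitrap Elite in data-dependent mode.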

C-term flag | Molecule
0 | B1
0 | B2
9 | B3
3 | B4
19 | B5
22 | B6
5 | B7

Same assay, conditions: Co-IP followed by mass spectrometry of B3GNT2; C-term tag, IgG pull-down

C-term IgG | Molecule
0 | B1
0 | B2
7 | B3
0 | B4
15 | B5
16 | B6
4 | B7

Same assay, conditions: Co-IP followed by mass spectrometry of B3GNT2; N-term tag, FLAG pull-down

N-term FLAG | Molecule
3 | B1
3 | B2
8 | B3
0 | B4
20 | B5
16 | B6
3 | B7

Same assay, conditions: Co-IP followed by mass spectrometry of B3GNT2; N-term tag, IgG pull-down

N-term IgG | Molecule
0 | B1
0 | B2
8 | B3
0 | B4
20 | B5
18 | B6
3 | B7
